Literature values, collected in PMC8805269.
pKd: −log10 of the molar value.

Target: Swi6 CSD (Schizosaccharomyces pombe) (UniProt P40381)

Swi6 CSD (from UniProt P40381)
pKd: > 7.77
